Experimental findings from patent US20180105597A1 (Eli Lilly, published 2018) are described below.

In test [1] the target is T1, TGFβ RII AP (UniProt P37173 23-166). Description: ligand blocking ELISA, TGFβ RII AP binding to coated TGFβ ligand 1 (competitor). The method, then: (§1) A serial dilution of purified antibodies was incubated with TGFβ RII AP for 1 h in TGFβ-coated plates. After wash, p-nitrophenyl phosphate substrate was added to the wells for color development. The values of absorbance at 405 nm were read on a microtiter plate reader (Molecular Devices Corp) for the quantification of TGFβ RII binding to TGFβ. IC50 of the antibodies was analyzed using GraphPad Prism.
T1 sequence (P37173 23-166): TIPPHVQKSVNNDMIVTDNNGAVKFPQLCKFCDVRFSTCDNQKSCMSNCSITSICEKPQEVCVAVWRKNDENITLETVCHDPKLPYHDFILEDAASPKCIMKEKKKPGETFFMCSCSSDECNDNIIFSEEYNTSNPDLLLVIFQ
A general note: In an ELISA, binding on a coated surface is turned into a signal by an enzyme label.

Test [2] addresses T2, huTGFβ RIIFc (recombinant extracellular domain of human TGFβ RII fused to Fc) (human, UniProt P37173 23-166).
T2 construct: The Fc is not described; also called human TGFβ RIIFc; not shown: Fc part
Description: ELISA, huTGFβ RIIFc coated, antibody titrated; LY3022859; binding ELISA. As to the method:
(§2) For binding assays, huTGFβ RIIFc was coated on microplates. […] After washing, plates were incubated with HRP-labelled goat anti-rat Fab detection antibody and subsequently TMB peroxidase substrate was added to the wells for color development. The values of absorbance at 405 nm were read on a microtiter plate reader (Molecular Devices Corp). EC₅₀ of the antibodies was analyzed using GraphPad Prism.

The target of test [3] is T2, huTGFβ RIIFc (recombinant extracellular …). Description: SPR (Biacore), TGFβ RII-Fc extracellular domain immobilized at low density; LY3022859; KD. The method, then: (§3) The association (kon) and dissociation (koff) rates were determined using BIAevaluation 2.1 software.
For orientation: In SPR one partner is held on a chip, and binding of the other changes the refractive index at the surface.

The target in test [4] is T1, TGFβ RII AP. As to the kind of experiment: ligand blocking ELISA, TGFβ RII AP binding to coated TGFβ ligand 3 (competitor). As to the method: as §1
Test [5] has as its target T1, TGFβ RII AP. As to the kind of experiment: ligand blocking ELISA, TGFβ RII AP binding to coated TGFβ ligand 2 (competitor). As to the method:
as §1

The target in test [6] is human C1q (human, UniProt P02745 23-245; P02746 28-253; P02747 29-245). Description: cell-based or functional assay.
Chain of human C1q (P02745 23-245 limits assumed, chain 1 of 3): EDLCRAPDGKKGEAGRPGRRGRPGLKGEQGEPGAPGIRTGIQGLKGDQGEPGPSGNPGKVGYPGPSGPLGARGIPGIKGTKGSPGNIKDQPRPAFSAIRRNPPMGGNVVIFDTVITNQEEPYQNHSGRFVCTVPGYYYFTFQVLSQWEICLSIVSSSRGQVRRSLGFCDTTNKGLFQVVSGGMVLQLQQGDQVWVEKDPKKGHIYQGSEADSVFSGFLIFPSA
Chain of human C1q (P02746 28-253 limits assumed, chain 2 of 3): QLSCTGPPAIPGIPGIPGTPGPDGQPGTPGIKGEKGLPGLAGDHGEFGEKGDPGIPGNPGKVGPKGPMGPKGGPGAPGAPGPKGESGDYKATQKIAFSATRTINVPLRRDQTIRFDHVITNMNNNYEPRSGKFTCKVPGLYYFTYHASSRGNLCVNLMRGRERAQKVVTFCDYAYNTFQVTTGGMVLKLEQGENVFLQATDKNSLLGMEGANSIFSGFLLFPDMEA
Chain of human C1q (P02747 29-245 limits assumed, chain 3 of 3): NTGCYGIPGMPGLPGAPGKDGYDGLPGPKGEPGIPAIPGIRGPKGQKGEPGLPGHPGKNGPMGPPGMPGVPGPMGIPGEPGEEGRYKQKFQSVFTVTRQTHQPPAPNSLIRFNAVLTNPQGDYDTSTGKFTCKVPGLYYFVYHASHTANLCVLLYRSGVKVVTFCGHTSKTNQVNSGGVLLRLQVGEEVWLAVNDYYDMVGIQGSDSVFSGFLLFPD
Test [7] has as its target T2, huTGFβ RIIFc (recombinant extracellular …). As to the kind of experiment: SPR (Biacore), TGFβ RII-Fc extracellular domain immobilized at low density; Antibody A; KD. As to the method: as §3
The target is the same in test [8]. As to the kind of experiment: ELISA, huTGFβ RIIFc coated, antibody titrated; Antibody A; binding ELISA. The method, then: as §2
Test [9] deals with T3, FcγR3a (V) (human, UniProt P08637 17-208).
T3 construct: V158 allotype as printed
T3 sequence (P08637 17-208 F176V): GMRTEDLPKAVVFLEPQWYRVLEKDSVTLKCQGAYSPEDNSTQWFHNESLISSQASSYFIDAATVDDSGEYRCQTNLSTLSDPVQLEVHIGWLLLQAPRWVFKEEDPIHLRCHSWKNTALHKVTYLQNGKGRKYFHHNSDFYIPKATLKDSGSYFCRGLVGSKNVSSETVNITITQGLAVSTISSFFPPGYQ
Description: solid phase binding assay (Meso Scale), receptor coated, antibody titrated. As to the method:
(§4) Receptor protein (50 ng/well) was added to the wells of a Meso Scale standard bare plate in PBS. […] The plates were washed three times in PBS/0.05% Tween-20. Stock solutions of all antibodies were prepared at 0.5 mg/mL in 1% MSD blocker A in PBS-Tween and serially diluted 1:3. The indicated antibodies were added to each reaction well. Recombinant protein and antibodies were incubated for 2 hours at room temperature and then the plates were washed 2 times with PBS/0.05% Tween. Secondary antibody was added to each well. After one hour at room temperature with agitation followed by 40 mins at room temperature, the plates were washed 2 times with PBS/0.05% Tween-20. For detection, 150 μL of a 1× Read Buffer (MSD cat # R92TC-1, 4×) were added to each well. The plate was then read using a Sector Imager 2400.

Test [10] has as its target T4, FcγR2a(H) (human, UniProt P12318 36-218).
T4 construct: also called human Fc-gamma receptor 2a, H form
T4 sequence (looked up): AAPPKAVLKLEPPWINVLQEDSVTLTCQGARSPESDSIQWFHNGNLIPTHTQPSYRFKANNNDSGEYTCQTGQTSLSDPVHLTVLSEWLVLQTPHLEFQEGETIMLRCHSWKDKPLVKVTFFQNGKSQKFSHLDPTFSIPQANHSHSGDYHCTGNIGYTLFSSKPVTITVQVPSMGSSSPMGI
The description is as above. The method, then:
as §4

Test [11] deals with T5, FcγR1 (human, UniProt P12314 16-288).
T5 construct: also called human Fc-gamma receptor 1
T5 sequence (P12314 16-288): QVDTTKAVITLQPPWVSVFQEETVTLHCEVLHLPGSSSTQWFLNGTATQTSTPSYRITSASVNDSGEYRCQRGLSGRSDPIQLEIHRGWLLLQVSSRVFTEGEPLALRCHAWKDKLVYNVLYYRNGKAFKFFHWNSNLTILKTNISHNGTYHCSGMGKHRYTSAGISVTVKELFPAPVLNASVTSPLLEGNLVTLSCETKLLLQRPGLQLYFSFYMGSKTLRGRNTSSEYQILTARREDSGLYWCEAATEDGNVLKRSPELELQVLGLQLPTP
The test is described as above. The method, then:
as §4

T2 sequence (P37173 23-166): as the sequence (P37173 23-166) above

B1: LY3022859 (antibody, IgG1, V domains shown)
VH: QLQVQESGPGLVKPSETLSLTCTVSGGSISNSYFSWGWIRQPPGKGLEWIGSFYYGEKTYYNPSLKSRATISIDTSKSQFSLKLSSVTAADTAVYYCPRGPTMIRGVIDSWGQGTLVTVSS
VL: EIVLTQSPATLSLSPGERATLSCRASQSVRSYLAWYQQKPGQAPRLLIYDASNRATGIPARFSGSGSGTDFTLTISSLEPEDFAVYYCQQRSNWPPTFGQGTKVEIK
notes: the antibody is disclosed in WO 2010/053814; also called TGFβRII mAb LY3022859; anti-TGFβ RII antibody IgG1
The term IC50 denotes the concentration needed to halve the response being measured. Low values mean greater potency in that assay, high ones weaker potency in that assay. The EC50 is the concentration at which the effect is half-maximal. Usually Kd stands for the constant that tells how readily two partners part at equilibrium. With B1, the IC50 in test [1] was 5.48 nM; in test [4], 4.41 nM; in [5] it was 4.45 nM. For the same molecule, the concentration giving a half-maximal response (EC50) in test [2] came out at 0.306 nM. Further, the Kd in [3] is 0.0106 nM.

B2: Antibody A (antibody, human IgG1, kappa)
heavy: QLQVQESGPGLVKPSETLSLTCTVSGGSISNSYFSWGWIRQPPGKGLEWIGSFYYGEKTYYNPSLKSRATISIDTSKSQFSLKLSSVTAADTAVYYCPRGPTMIRGVIDSWGQGTLVTVSSASTKGPSVFPLAPSSKSTSGGTAALGCLVKDYFPEPVTVSWNSGALTSGVHTFPAVLQSSGLYSLSSVVTVPSSSLGTQTYICNVNHKPSNTKVDKRVEPKSCDKTHTCPPCPAPEAEGAPSVFLFPPKPKDTLMISRTPEVTCVVVDVSHEDPEVKFNWYVDGVEVHNAKTKPREEQYNSTYRVVSVLTVLHQDWLNGKEYKCKVSNKALPSSIEKTISKAKGQPREPQVYTLPPSREEMTKNQVSLTCLVKGFYPSDIAVEWESNGQPENNYKTTPPVLDSDGSFFLYSKLTVDKSRWQQGNVFSCSVMHEALHNHYTQKSLSLSPGK
light: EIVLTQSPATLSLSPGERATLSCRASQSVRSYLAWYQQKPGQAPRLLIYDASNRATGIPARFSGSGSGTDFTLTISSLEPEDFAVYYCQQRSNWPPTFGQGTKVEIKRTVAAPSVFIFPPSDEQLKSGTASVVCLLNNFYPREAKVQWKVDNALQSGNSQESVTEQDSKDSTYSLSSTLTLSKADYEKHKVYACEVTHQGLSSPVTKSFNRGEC
notes: same variable regions as LY3022859; also called anti-TGFβ RII antibody IgG1 effector null
Regarding B2, the IC50 came out at 4.83 nM in test [1], 4.36 nM in test [4] and 4.4 nM in test [5]. Moreover, in test [6], the “CDC activity EC50 (nM), BxPC3 target cells, human complement” value was over 200 nM. Besides, the “CDC activity EC50 (nM), HEK293 target cells, human complement” value in test [6] is over 200 nM. In test [6], the “CDC activity EC50 (nM), MDA-MB-231 target cells, human complement” value is over 200 nM. Besides, the “CDC activity EC50 (nM), TGFRβII-HEK target cells, human complement” value in test [6] is over 200 nM. Besides, the Kd in test [7] was 0.0222 nM. In addition, the EC50 in test [8] was 0.277 nM; in test [9], over 2000 nM; in test [10], over 2000 nM; in test [11], over 2000 nM.
